# Test results: the nanobody polyreactivity screen of Harvey et al. (2022)
# Assay: yeast display, Sf9 membrane polyspecificity reagent, FACS + sequencing; frameworks hold sequencing errors
# In short: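 A synthetic nanobody library was expressed on Saccharomyces cerevisiae BJ5465 by galactose induction for 36–48 hours. The library was stained for 1 hour at 4 °C with 10% biotinylated, detergent-solubilized Sf9 membrane reagent and enriched with streptavidin microbeads before FACS. Low and high (top ~1%) gates were set on anti-HA fluorescence for expression and streptavidin fluorescence for reagent binding, and each polyreactivity label reflects the gate of origin.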
row,Sequence,polyreactivity (PSR sort gate)
1,QVQLVESGGGLVQAGGSLRLSCAASGRIFYPYAMGWYRQAPGKERELVAAISRSGGSTYYADSVKGRFTISRDNAKNTVYLQMNSLKPEDTAVYYCAARRGFGPDGEMDYWGQGTQVTVSS,low polyreactivity
2,QVQLVESGGGLVQAGGSLRLSCAASGRTFYFYTMGWYRQAPGKERELVAAISWSGGSTYYADSVKGRFTISRDNAKNTVYLQMISLKPEDTAVYYCAASSPWEQSNDQFYYWGQGTQVTVSS,low polyreactivity
3,QVQLVESGGGLVQAGGSLRISCAASGFTFGVYAMGWYRPAPGKEREFVASISFSGGRTYYSDSVKGRFTISRDNAKNTVYLQMNSLKPEDTAVYYCAKRWSADDYWGQGTQVTVSS,high polyreactivity
4,QVQLVESGGGLVQAGGSLRLSCAASGFIFKRYAMGWYRQAPGKERELVAAITSGGSTHYADSVKGRFTISRDNAKNTVYFQMNSLKPEDTAVYYCASRRYKWGVRYDYWGQGTQVTVSS,high polyreactivity
5,QVQLVESGGGLVQAGGSLRLSCAASGLTFYQNAMGWYRQAPGKERELVAAISSIGGTYYADSVKGRFTISRDNAKNTVYLQMNSLKPEDTAVYYCAKRSRYPYYPYGYWGQGTQVTVSS,high polyreactivity
6,QVQLVESGGGLVQAGGSHRFSCAASGFTVWEYAMGLYRQAPGKERELVAAISRGTSTYYADSVKGRFTISRDNAKNTVYLQMNSLKPEDTAVYYCAAAPSYYPARHGYWGQGSQVTVSS,low polyreactivity
7,QVQLVESGGGLVQAGGSLRLSCAASGLIFGVNAMGWYRQAPGKERELVAAISRDSDTNYADSVKGRFTISRDNAKNTDYLQMNSLKPEDTAVYYCNAYSEWPVPSPPRSQSLDYWGQGTQVTVSS,low polyreactivity
8,QVQLVESGGGLVQAGGSLRLSCAASGRTFRPYAMGWYRQAPGKERELVAAITRSGGSTYYADSVKGRFTISRDNAKNTVYLQMNSLKPEDTAVYYCAAYNTYSDTYDYWGQGTQVTVSS,low polyreactivity
9,QVQLVESGGGLVQAGGSLRLSCAASGFTFSKYDMGWYRQATGKERELVAAISRSAGSTYYADSVKGRFTISRDHAKNTVYLQMNSLKPEDTAVYYCARDNPRSPSGYNYWGQGTQVTVSS,high polyreactivity
10,QVQLEESGGGLVQAGGSLRLSCAASGSIFDSYAMGWYRAAPGKERELVATINTSGGSTYYADSVKGRFTIHDNAKNTVYLQMNSLKPEDTAVYYCNAGRWVYWQNNFGDYGYWGQGTQVTVSS,low polyreactivity
11,QVQLVESGGGLVQAGGSLRLSCAASGFTFWIYAMGWYRQARGKEWELVAAISASGGYTRYADSVKGRFTISRDNAKNTVYLQMNSLKPEDTAVYYCAAYHGLRRGFDYWGEGTQVTVSS,high polyreactivity
12,QVQLVESGGGLVQAGGRLRLSCAASVGIFYYYAMGWYRQAPGKERELVATITYTGGSTYADSVKGRFTISRDNAKNTVYLQMNSLKPEDTAVYYCAADGRSRSYYGYDHWGQGTQVTVSS,low polyreactivity
13,QVQLVESGGGLDQAGGSLRLSCPASGSTFSNYAMGWYRQEPGKERELVAAISVRGGSTYYADSVKGRFTISRDNAKNTVYLQMNSLKPEDTAVYYCNADTDYRDDMDYWGQGTQVTVSS,high polyreactivity
14,QVQLVESGGGLVQAGGSLRLSCAASGRIFTTYAMGWYRQAPGKEREFVAAINYSGGRTYYAESVKGRFTISRDNAKNTVYLQMISLKPEETAVYYCAARSLFRGDYWGQGTQVTVSS,high polyreactivity
15,QVQLEESGGGLVQAGGSLRLSCAASGYISRQSAMGWYSQAPGKERELVAAITRGGAGTYYAASVKGRFTISRDNAKHTVYLQMNSLKPEDTAVYYCAKTWVSRDVEYDYWGQGTQVTVSS,low polyreactivity
16,QVQLEESGGGLVQAGGSLRLSCAASGFTFRRYAMGWYRQAPGKERELVAVITTAGYTNYADSVKGRFTISRDNAKNSVYLQMNSLKPEDTAVYYCATDNGTRKRRYDYWGQGTQVTVSS,low polyreactivity
17,QVQLVESGGGLVQAGGSLRLSCAASGFTYIRYAMGWSRKATGKERQLVAAIRGTGTSTYFADSVKGRFTISRDNGKNTVYLQMNSLKPEETAVYYCNNVSGRSPYTRYDYWGQGTQVTVSS,low polyreactivity
18,QVQLVESGGGLVQAGGSLRLSCAASGFTFYRNAMGWYRQAPWKERELVATITRSGGSKYYADSVKGRFTISRDNAKNTVYLQMNSLKPEDTEVYYCNDAISGVLVHGNYWGQGTQVTVSS,low polyreactivity
19,QVQLVESGGGLVQAGGSLRLSCAASGSIFYPYAMGWYRQATGKERELVAVITDTGSTYYADSVKGRFTISRDNAKNTVYLQMNSLKPEDTAVYYCYRTSYVKTPTKRYNYWGQGTQVTVSS,low polyreactivity
20,QVQLVESGGGLVQAGGSLRLSCAASGLTFYSYAMGWYRQAPGKERELVADISWSGGSTYYADSVKGRFTISRDNAKNTVYLQMNSLQPEDTAVYYCAAEVFPGYDYWGQGTQVTVSS,low polyreactivity
21,QVQHVESGGGLVQAGGSLRLSCAASGRIFVRNAMGWYRQARGKERELVADITNGGSTNYADSVKGRFTISRDNAKNTVYLQMNSLKPEDTAVYYCAVERYRYPFDYWGQGTQVTVSS,low polyreactivity
22,QVQLVESGGGLVQAGGSLRLSCAASGSTFGKYAMGWYRQAPGKERELVAAITTGGNTSYADSVKGRFTISRDNANNTVYLQMNSLKPEDTAVYYCNAKRSFRVDYWGQGTQVTVSS,low polyreactivity

row,Sequence,polyreactivity (PSR sort gate)
1,QVQLVESGGGLVQAGGSLRLSCAASGRIFVQNAMGWYRQAPGKERELVAAISISGARTYYADSVKGRFTISRDNAKNSDYLQMNRLKPEDTAVYYCNASYRDEDDYWGQGTQVTVSS,high polyreactivity
2,QVHLVESGGGLVQAGGSLRLSCAASGRTFDLNVMGWYRQAPGKERELVAAISFSGGSTYYADSVKGRFTISRDNAKNTVYLQMNSLKPEDTAVYYCSADEYSADSVPSWYDYWGQGTQVTVSS,high polyreactivity
3,QVQLVESGGGLVQAGGSLRLSCAASGSTLRRNAMGWYRQAPGKERELVAAITGSRGSTFYADSVKGRFTISRDNAKNTVYLQMNSLKPEDTAVYYCAVYKWSTRVSQYRYDYWGQGTQVTVSS,high polyreactivity
4,QVQLVESGGGLDQAGGSLRLSCAASGRTFAHNAMGWYRQAPGKERELVAAITWSGGTTYYADSVKGRFTISRDNAKNTVYLQMNSLKPEDTAVYYCNTYSYLADPKYDYWGQGTQVTVSS,low polyreactivity
5,QVQLVESGGGLVQAGGSLSLSCAASGFIFVPYAMGLSRQAPGKERELVARITWSGGRTYYADSVKGRFTISRDNAKNTVYLQLNSLKPEDTAVYYCNADVYGFDYWGQGTQVTVSS,high polyreactivity
6,QVQLVESGGGLVQAGGSLRLSCASSGRTFPGNAMGWYRPAPGKERELVAAISWSGTRTYYADSVKGRFTISRDNAKNTVSLKMNSLKPEDTAVYSCNVVVKGAWDYYPYDYWGQGTQVTVSS,high polyreactivity
7,QVQLVESGGGLVQAGGSLRLSCAASGFTFASNAMGWYRQAPWKERELDAGISRTGTTTYYADSVKGRFTISRDNAKNTVYLQMNSLKPEDTAVYYCAASKQAVKYRSQRYYYWGQGTQVTVSS,high polyreactivity
8,QVQLVESGGGLVQAGGSLRLSCAASGSTFSPNAMGWYRQAPGKERELVADIDWSGGGTYYADSVKGRFTISRDNAKNTVYLQMNSLKPEDTAVYYCAAGYVWWPFEYDYWGQGTQVTVSS,high polyreactivity
9,QVQLVESGGGLVQAGGSLRLSCSASGSIFLYYTMGWYRQEPGKERELVAAITWSGASTYYADSVKGRFTISRDNGKITVYLQMNSLKPEDTAVYYCATRYRYRYCGQGTQVTVSS,high polyreactivity
10,QVQLVESGGGLVQAGGSLRLSCAASGLIFRAYAMGWYRQAPGKETELVAAITWNGGSTNYADSVKGRFTISRDNAKNTVYLQMHSLKPEDTAVYYCAAGSSRVFRKAGITRPSGLYYYWGQGTQVTVSS,high polyreactivity
11,QVQLVESGGGLVQAGGSLRLSCAASGLILYYYTMGWYRQAPGKERELVAAINSGGNTYYADSVKGRFTISRDNAKNTVYLQMNSLKPEDTAVYYCNAYRVRYKRSYDYWGQGTQVTVSS,high polyreactivity
12,QVQLVESGGGLVLAGGILRLSCAASGSTFYAYAMGWYRQAPGKERELVAAIDSGGSTYYADSVKGRFTISRDNAKNTVYLQMNSLKPEDTAVYYCAVRHRYTRAYWGRDYWGQGSQVTVSS,low polyreactivity
13,QVQHVESGGGLVQAGGSLRLSCAASGSILYLYAMGWYRQAPGKERELVAAISLGDGSTYYADSVKGRFTISRDNAKNTVYLQMNSLKPEDTAVYYCNADRYTYWQDYNYWGQGTQVTVSS,low polyreactivity
14,QVQLVESGGGLVQAGGSLRLSCAASGSIFAFYAMGRYRQAPGKERELVAAISYNGGSTYYADSVKGRFTISRDNAKNTVYLQMNSLKAEDTAVYYCAAYHFRAPSEYDYWGQGTQVTVSS,low polyreactivity
15,QVQLVESGGGLVQAGGSRRLSCAASGLIMDYYAMGWYRQAPGKERELVAAISSGGTDTYYADSVKGRFTITRDNAKNTVYLQMNSLKPEDTAVYYCAADSYWSAYDYWGQGTQVTVSS,low polyreactivity
16,QVQLVESGRGLVQEGGSLRLSCASSGSTFKVYAMGWYRQAPGKERELVAAISQSGGSTYYADSVKGRFTISRDNAKNTVYIQMNSLKPEDTAVYYCAVRTYVYNWSFSSLPYDYWGQGTQVTVSS,high polyreactivity
17,QVQLVESGGGLVQAGGSLRLSCAASGSTFGYYAMGWYRQAPGKERELVADISKSSGSTYYADSVKGRFTISRDNAKNTVYLQMNSLKPEDTAVYYCNRRYYYRTYDYWGQGTQVTVSS,high polyreactivity
18,QVQLVESGGGLVQAGGSLRLSCAASGRIFTWYTMGWYRQAPGKERELVAAINRGGSTTYADSVKGRFTISRDNAKNTVYLQMNSLKPEDTAVYSCAAYRYTSRVYSYWRGYDYWGQGTQVTVSS,high polyreactivity
19,QVLLVESGPGLVQAGGSLRLSCAASGSTLYYYAMGWYRQAPGKERELVAAITWSGDSTYYADSVKGRFTISRYNAKNTVYLQMNSLIPEDTAVYYCASEVESYDQYYTYDYWGQGTQVTVSS,high polyreactivity
20,QVQLVESGGGLVQAGGSLRLICDAYVSTFYYYAMGWYRQAPGKVRELVAAISSGGSTNYADSVKGRFTISRDNAKNTVYLQMNILKPEDTAVYYCNAYSYWWLGYDYWGQGTQVTVSS,high polyreactivity
21,QVQLVESCGGLVQAGGSLRLSCAASGRTFYGYAMGWYRQAPGKERELVAAITASGGSTNYADSVKGRFTISRDNAKNTVYLQMNSLKPEDTAVYYCAARVYYLGQFYWYGYWGQGTQVTVSS,high polyreactivity
